Measured values: patent US6335019B1, “Methods for treating sensitivity to protein allergen using peptides which include a T cell epitope recognized by a T cell receptor specific for the protein allergen” (Immulogic Pharmaceutical Corp., priority 1989, dated 2002)

B1: Amb a IC: E. coli expressed recombinant Amb a IC, used as crude bacterial lysate (protein)
chain: LYFTLALVALLQPVRSAEGVGEILPSVNETRSLQACEALNIIDKCWRGKADWENNRQALADCAQGFAKGTYGGKWGDVYTVTSNLDDDVANPKEGTLRFAAAQNRPLWIIFKNDMVINLNQELVVNSDKTIDGRGVKVEIINGGLTLMNVKNIIIHNINIHDVKVLPGGMIKSNDGPPILRQASDGDTINVAGSSQIWIDHCSLSKSFDGLVDVTLGSTHVTISNCKFTQQSKAILLGADDTHVQDKGMLATVAFNMFTDNVDQRMPRCRFGFFQVVNNNYDRWGTYAIGGSSAPTILCQGNRFLAPDDQIKKNVLARTGTGAAESMAWNWRSDKDLLENGAIFVTSGSDPVLTPVQSAGMIPAEPGEAAIKLTSSAGVFSCRPGAPC
B2: affinity purified Amb a I: protein affinity purified from pollen extract with monoclonal antibody 4B5/B7 (protein)
chain: AEDLQEILPVNETRRLTTSGAYNIIDGCWRGKADWAENRKALADCAQGFGKGTVGGKDGDIYTVTSELDDDVANPKEGTLRFGAAQNRPLWIIFERDMVIRLDKEMVVNSDKTIDGRGAKVEIINAGFTLNGVKNVIIHNINMHDVKVNPGGLIKSNDGPAAPRAGSDGDAISISGSSQIWIDHCSLSKSVDGLVDAKLGTTRLTVSNSLFTQHQFVLLFGAGDENIEDRGMLATVAFNTFTDNVDQRMPRCRHGFFQVVNNNYDKWGSYAIGGSASPTILSQGNRFCAPDERSKKNVLGRHGEAAAESMKWNWRTNKDVLENGAIFVASGVDPVLTPEQSAGMIPAEPGESALSLTSSAGVLSCQPGAPC
B3: Amb a IA: full-length recombinant Amb a IA, amino acid 10-398, E. coli expressed, used as crude bacterial lysate (protein)
chain: LYFTLALVTLLQPVRSAEDLQEILPVNETRRLTTSGAYNIIDGCWRGKADWAENRKALADCAQGFGKGTVGGKDGDIYTVTSELDDDVANPKEGTLRFGAAQNRPLWIIFERDMVIRLDKEMVVNSDKTIDGRGAKVEIINAGFTLNGVKNVIIHNINMHDVKVNPGGLIKSNDGPAAPRAGSDGDAISISGSSQIWIDHCSLSKSVDGLVDAKLGTTRLTVSNSLFTQHQFVLLFGAGDENIEDRGMLATVAFNTFTDNVDQRMPRCRHGFFQVVNNNYDKWGSYAIGGSASPTILSQGNRFCAPDERSKKNVLGRHGEAAAESMKWNWRTNKDVLENGAIFVASGVDPVLTPEQSAGMIPAEPGESALSLTSSAGVLSCQPGAPC

Experiments:
[1] = system: human IgE (ragweed allergic patient sera); experiment: SDS-PAGE Western blot (and ELISA) of ragweed allergic patient IgE binding to pollen, affinity purified and recombinant Amb a I / Amb a II; set-up: key to IgE binding, summarized Western blot data: −: no signal over background; +−: barely discernable over background; +: clearly positive; ++: strongly positive; +++: highly positive; settings: for Extent of specific IgE binding relative to Amb a IB or Amb a II (in words): patient #295, FIG. 20; for Human IgE binding (in words): Western blot (FIG. 17) and/or ELISA, ragweed allergic patient IgE
Experimental: As represented in FIG. 1A, a selected monoclonal antibody (designated 4B5/B7) which recognizes an Amb a I preparation unsubjected to denaturing conditions was used to affinity purify from pollen extract a single protein, which is referred to as affinity purified Amb a I. This was carried out, using known techniques, by producing the desired monoclonal antibody, isolating it in large quantities from ascites and immobilizing it on Sepharose (Pharmacia). Aqueous pollen extract was passed over the monoclonal antibody-containing column and a protein species was eluted.
Furthermore, full-length and truncated cDNAs encoding several members of the Amb a I multigene family, as well as Amb a II, were cloned in-frame into the expression vector pTrc99 (Amann et al. Gene, 69:301-315, (1988)) and transformed into the JM109 host. Expression of recombinant Amb a I and Amb a II protein was induced by 1 mM isopropyl-β-D-thiogalactopyranoside, cells were harvested, lysozyme treated, sonicated and insoluble inclusion bodies recovered by a low speed centrifugation. Recombinant Amb a I and Amb a II protein present in the recovered pellet was solubilized in buffer containing 8M urea, 50 mM Tris HC1 pH8.0, 50 mM NaCl, 1 mM EDTA, 1 mM dithiothreitol, 1 mM phenylmethylsulfonyl fluoride. After solubilization, the crude urea lysate was dialyzed at 4° C. against PBS. […] This antigenic cross-reactivity is consistent with the observed sequence homology of the cDNAs (see FIG. 16).
Comparison of human IgE binding to recombinant Amb a I and Amb a II proteins with anti-peptide and monoclonal anti-Amb a I antibodies have provided data consistent with the conclusion that the N-terminal portion (historically referred to as the β-region) of Amb a IA includes the major IgE eptiope(s).
Affinity purified Amb a I was electrophoresed, Western transferred (Towbin et al., Proc. Natl. Acad. Sci. USA, 76:4350 (1979)) and probed with a variety of antibodies, including IgE from an allergic patient (FIG. 17). In pollen extract Amb a I is not only present as an intact 38-KD species, but also characterized by its component 26KD alpha chains and 12-KD beta chains which are formed by enzymatic cleavage. The intact 38-KD species and the alpha chain are clearly detected using rabbit anti-Amb a I, polyclonal affinity purified anti-RAE 16 and monoclonal anti-Amb a I JBIE3-4 (FIG. 17); RAE 16 peptide has the sequence RTDKDLLENGAIC derived from amino-acids […] of Amb a IB, FIG. 16). Affinity purified Amb a I (partial sequence presented in Table 1) as well as chromatographically purified Amb a II (partial sequence presented in Table 2) are bound on Western blots by these antibodies as well as by patient IgE (FIG. 17). The goat anti-Amb a I polyclonal antibody also binds multiple Amb a I and Amb a II species on a two dimensional Western blot of pollen extract (FIG. 18). The Western blot was performed as outlined below. […]

[2] = system: T cells from patients allergic to ragweed; experiment: T cell proliferation of ragweed allergic patient T cells to ragweed proteins and recombinant lysates (tritiated thymidine); format: cell-based, human; settings: for T cell recognition and proliferation (in words): T cells previously stimulated with mixed ragweed pollen extract, summary of Table 4
Excerpt: T cells from patients allergic to ragweed, previously stimulated with a mixed ragweed pollen extract, can recognize and proliferate in response to pollen extract, ragweed skin test reagent (RWST), affinity purified Amb a I protein and crude bacterial lysates containing recombinant Amb a I gene products IA, IB and IC (Table 4). […] The use of crude bacterial lysates as antigens precludes a firm conclusion form the negative responses, since the relative levels of recombinant proteins in lysate have not been determined.
Peripheral blood mononuclear cells (PBMC) were purified from 60 ml of heparinized blood from ragweed-allergic patients. PBMC were subsequently treated as described below, although in individual cases, the length of time of cultivation with IL-2 and IL-4 and the specific ragweed proteins and peptides used for stimulation varied. As an example, ten ml of patient 222 PBMC at 10^6/ml were cultured at 37° C. for 7 days in the presence of 20 micrograms aqueous ragweed pollen extract/ml RPMI-1640 supplemented with 5% pooled human AB serum. Viable cells were purified by Ficoll-Hypaque centrifugation and cultured for three weeks at 5 units recombinant human IL-2/ml and 5 units recombinant human IL-4/ml. The resting T cells were then restimulated (secondary) with 20 micrograms aqueous ragweed pollen extract/ml at a density of 2×10^5 cells/ml in the presence of X-irradiated (3500 RADS) autologous PBMC (5×10^5/ml) for three days, purified by Ficoll-Hypaque centrifugation and grown in 5 units IL-2/ml and 5 units IL-4/ml for two weeks. For assay, 2×10^4 resting secondary T cells were restimulated (tertiary) in the presence of 5×10^4 X-irradiated (3500 RADS) autologous PBMC or 2×10^4 autologous Epstein-Barr virus-transformed B cells (20,000 RADS) with various concentrations of allergen or their fragments in a volume of 200 microliters in 96-well round bottom assay plates for 3 days. Each well then received 1 microCurie tritiated (methyl) thymidine for 16 hours. The counts incorporated were collected onto glass fiber filters and processed for liquid scintillation counting. […] Antigens used: IPC aqueous pollen extract (pollen), Hollister-Stier ragweed skin test extract (RWST), ALK cat epithelium skin test extract (CST), affinity 4B5/B7 antibody purified (dialyzed) Amb a I (B7), and chromatographically purified Amb a I and (Amb a I). Medium only control is shown as a line with no symbol. Alternatively, PBMC were sometimes carried only into a secondary assay (as outlined above for a tertiary assay) with 20 micrograms aqueous pollen extract 7 days, followed by culture in 5 units IL-2/ml and 5 units IL-4/ml for 2-3 weeks. […] Secondary and tertiary assays of a panel of ragweed allergic patients were performed using synthetic peptides derived from the sequences of various ragweed pollen proteins. […] Another four peptides (RAE15.6, RAE3.D, RAE28.1, RAE26.15) which are also derived from the sequence of the same three cDNA's could stimulate 35 to 58% of the patients' T cells. One peptide (RAE4) which is derived from the cDNA of IPC Clone 5 could also stimulate 25% of the patients' T cells. […] By this method it is possible to identify novel therapeutic and diagnostics entities for use in the treatment and the diagnosis of ragweed allergy.

[3] = patient 151 2° (secondary assay)
[4] = patient 222 2° (secondary assay)
[5] = patient 274 2° (secondary assay)
[6] = patient 296 2° (secondary assay)
[7] = patient 314 2° (secondary assay)
[8] = patient 316 2° (secondary assay)
[9] = patient 319 2° (secondary assay)
[10] = patient 321 2° (secondary assay)

Molecule | IgE binding, summarized Western blot data ([1]; patient 151) | IgE binding, summarized Western blot data ([1]; patient 222) | IgE binding, summarized Western blot data ([1]; patient 291) | IgE binding, summarized Western blot data ([1]; patient 295) | IgE binding, summarized Western blot data ([1]; patient 296) | Extent of specific IgE binding relative to Amb a IB or Amb a II (in words) [1] | T cell recognition and proliferation (in words) [2] | Stimulatory response of human T cells (proliferation compared to medium control) [2, 3] | Stimulatory response of human T cells (proliferation compared to medium control) [2, 4] | Stimulatory response of human T cells (proliferation compared to medium control) [2, 5] | Stimulatory response of human T cells (proliferation compared to medium control) [2, 6] | Stimulatory response of human T cells (proliferation compared to medium control) [2, 7] | Stimulatory response of human T cells (proliferation compared to medium control) [2, 8] | Stimulatory response of human T cells (proliferation compared to medium control) [2, 9] | Stimulatory response of human T cells (proliferation compared to medium control) [2, 10] | other results
B1 | + | +− | +++ | +++ | ++ | far greater extent | proliferate | + (2-4 fold) | ++ (4-10 fold) | ++ (4-10 fold) | +++ (>10 fold) | +++ (>10 fold) | +++ (>10 fold) | ++ (4-10 fold) | + (2-4 fold) | Stimulatory response of human T cells (proliferation compared to medium control) ([2]; patient 295 2° (secondary assay)): + (2-4 fold)
B2 | – | – | – | – | – | – | proliferate | (+) (2 fold) | +++ (>10 fold) | ++ (4-10 fold) | +++ (>10 fold) | +++ (>10 fold) | +++ (>10 fold) | ++ (4-10 fold) | + (2-4 fold) | Human IgE binding (in words) [1]: bind human IgE; Human IgE binding (in words) ([1]; listed as 4B5/B7 affinity purified Amb a I): readily detectable IgE reactivity; Human IgE binding (in words) ([1]; listed as Affinity purified Amb a I): bound; T cell response in secondary assay (in words) ([2]; one ragweed allergic patient, FIG. 21): responded; Stimulatory response of human T cells (proliferation compared to medium control) ([2]; patient 320 2° (secondary assay)): +++ (>10 fold)
B3 | + | +− | +++ | +++ | ++ | far greater extent | proliferate | (+) (2 fold) | ++ (4-10 fold) | – | – | – | – | – | – | –
